B1: Hammerhead Ribozyme (parent)
chain: ACCGGAUGUGCUUUCCGGUCUGAUGAGUCCGUGAGGACGAAACAG

The data set covers variants of B1. The experiment in a line: self-cleavage, relative activity (ratio to wild type); higher = more cleavage; co-transcriptional.
For G33A A37U, the self-cleavage was 0.727.

Take G33A A37G: the self-cleavage was 1.28.

With G33A A37C, the self-cleavage is 1.03.

On to G31A A37G, for which the self-cleavage amounted to 0.978.

G31A A37U: the self-cleavage stood at 0.866.

For G31A A37C, the self-cleavage is 1.17.

In the case of U32G G33C, the self-cleavage turned out to be 0.966.

Regarding U32G G33U, the self-cleavage is 0.838.

U32G G33A: the self-cleavage is 0.843.

G31A G35A: the self-cleavage came to 1.05.

On to G31A G35U, for which the self-cleavage turned out to be 0.875.

For the variant G31A G35C, the self-cleavage amounted to 1.01.

As to G31C G36C, the self-cleavage turned out to be 0.453.

In the case of G31C G36U, the self-cleavage was 0.562.

As to G31C G36A, the self-cleavage was 0.527.

U32G A37U: the self-cleavage is 0.46.

For U32G A37C, the self-cleavage was 0.431.

For U32G A37G, the self-cleavage amounted to 0.448.

As to G33A A42G, the self-cleavage worked out at 0.256.

Turning to G33A A42C, the self-cleavage turned out to be 0.394.

For G33A A42U, the self-cleavage was 0.27.

With G31C G39A, the self-cleavage was 0.355.

Consider G31C G39C, for which the self-cleavage turned out to be 0.314.

Take G31C G39U: the self-cleavage is 0.373.

Consider G31A G33C, for which the self-cleavage is 0.767.

With G31A G33U, the self-cleavage was found to be 1.15.

Consider G31A G33A, for which the self-cleavage is 0.887.

As for U32A A41U, the self-cleavage turned out to be 0.405.

Regarding U32A A41G, the self-cleavage stood at 0.358.

In the case of U32A A41C, the self-cleavage came out at 0.347.

As for G33A, the self-cleavage was 1.03.

Regarding G33C, the self-cleavage turned out to be 0.997.

G31U A37G: the self-cleavage came out at 0.899.

As to G31U A37C, the self-cleavage turned out to be 1.25.

With G31U A37U, the self-cleavage turned out to be 0.847.

In the case of U32G A42C, the self-cleavage is 0.275.

Regarding U32G A42U, the self-cleavage was determined as 0.375.

With U32G A42G, the self-cleavage came to 0.357.

G31C A42G: the self-cleavage is 0.232.

Regarding G31C A42C, the self-cleavage stood at 0.328.

As for G31C A42U, the self-cleavage turned out to be 0.373.

Consider G31U A42C, for which the self-cleavage stood at 0.363.

Consider G31U A42G, for which the self-cleavage amounted to 0.28.

As to G31U A42U, the self-cleavage worked out at 0.295.

With G31A A42C, the self-cleavage came out at 0.38.

For G31A A42U, the self-cleavage was found to be 0.335.

Take G31A A42G: the self-cleavage stood at 0.298.

As for U32G G39U, the self-cleavage was determined as 0.317.

In the case of U32G G39A, the self-cleavage is 0.362.

In the case of U32G G39C, the self-cleavage came to 0.497.

For G31C C43G, the self-cleavage turned out to be 0.34.

In the case of G31C C43U, the self-cleavage was determined as 0.436.

Regarding G31C C43A, the self-cleavage is 0.392.

Take G31U U32C: the self-cleavage was determined as 0.69.

As for G31U U32A, the self-cleavage came to 0.802.

On to G31U U32G, for which the self-cleavage amounted to 0.871.

In the case of G31A A41C, the self-cleavage was 0.407.

On to G31A A41G, for which the self-cleavage is 0.317.

As for G31A A41U, the self-cleavage was found to be 0.399.

Turning to G33A A34U, the self-cleavage was 0.873.

As to G33A A34G, the self-cleavage turned out to be 0.484.

For the variant G33A A34C, the self-cleavage was found to be 1.

U32G A44U: the self-cleavage turned out to be 0.477.

Consider U32G A44C, for which the self-cleavage worked out at 0.424.

For U32G A44G, the self-cleavage was determined as 0.898.

Take C30U A42G: the self-cleavage is 0.24.

On to C30U A42C, for which the self-cleavage stood at 0.314.

Turning to C30U A42U, the self-cleavage turned out to be 0.328.

With G31C C38A, the self-cleavage amounted to 0.62.

Take G31C C38U: the self-cleavage was found to be 0.94.

For the variant G31C C38G, the self-cleavage is 0.488.

For U32A G39C, the self-cleavage was found to be 0.485.

Regarding U32A G39A, the self-cleavage is 0.367.

On to U32A G39U, for which the self-cleavage worked out at 0.366.

As to C30U C38A, the self-cleavage amounted to 0.695.

Consider C30U C38G, for which the self-cleavage was found to be 0.598.

With C30U C38U, the self-cleavage is 1.1.

U32A: the self-cleavage came out at 0.949.

On to U32G, for which the self-cleavage was 0.769.

Take U32C: the self-cleavage stood at 1.

Regarding U32C A34C, the self-cleavage amounted to 0.95.

For U32C A34G, the self-cleavage amounted to 0.896.

With U32C A34U, the self-cleavage is 0.738.

As to G31A G45U, the self-cleavage amounted to 0.805.

Turning to G31A G45A, the self-cleavage came out at 0.934.

With G31A G45C, the self-cleavage worked out at 0.945.

Consider G31U G36C, for which the self-cleavage came to 0.568.

For the variant G31U G36A, the self-cleavage worked out at 0.482.

Consider G31U G36U, for which the self-cleavage stood at 0.466.

On to G33A A40C, for which the self-cleavage amounted to 0.792.

Regarding G33A A40G, the self-cleavage amounted to 0.503.

As to G33A A40U, the self-cleavage stood at 0.525.

Regarding G31A A34G, the self-cleavage was 0.846.

On to G31A A34C, for which the self-cleavage was determined as 0.991.

With G31A A34U, the self-cleavage was 0.954.

With G33C A34C, the self-cleavage was 0.801.

In the case of U32C A37U, the self-cleavage turned out to be 0.752.

For U32C A37C, the self-cleavage was determined as 0.803.

For U32C A37G, the self-cleavage is 0.987.

Turning to G33A G39A, the self-cleavage is 0.429.

Take G33A G39U: the self-cleavage is 0.344.

Take G33A G39C: the self-cleavage came out at 0.503.

Turning to G33A C43G, the self-cleavage was found to be 0.371.

As to G33A C43A, the self-cleavage stood at 0.369.

As for G33A C43U, the self-cleavage amounted to 0.816.

Consider U32G A41C, for which the self-cleavage worked out at 0.459.

As to U32G A41U, the self-cleavage stood at 0.318.

Regarding U32G A41G, the self-cleavage stood at 0.299.

For the variant G33A G45C, the self-cleavage came out at 0.873.

For G33A G45A, the self-cleavage was found to be 0.794.

Turning to G33A G45U, the self-cleavage was 0.955.

Regarding G33A G36U, the self-cleavage came to 0.613.

For G33A G36A, the self-cleavage was determined as 0.894.

In the case of G33A G36C, the self-cleavage came to 0.58.

On to U32A C43G, for which the self-cleavage is 0.484.

For the variant U32A C43A, the self-cleavage was determined as 0.347.

Consider U32A C43U, for which the self-cleavage worked out at 0.595.

On to U32C G39A, for which the self-cleavage was 0.317.

Turning to U32C G39C, the self-cleavage turned out to be 0.375.

As to U32C G39U, the self-cleavage came out at 0.369.

Take G31U: the self-cleavage is 0.966.

On to G31C, for which the self-cleavage turned out to be 0.96.

In the case of G31A, the self-cleavage amounted to 1.03.

G31U G39A: the self-cleavage turned out to be 0.32.

G31U G39C: the self-cleavage was found to be 0.474.

In the case of G31U G39U, the self-cleavage was 0.353.

Regarding U32G A34G, the self-cleavage worked out at 0.65.

Regarding U32G A34C, the self-cleavage was 0.805.

In the case of U32G A34U, the self-cleavage was determined as 1.19.

For G31U C38G, the self-cleavage was 0.59.

G31U C38U: the self-cleavage is 0.801.

As for G31U C38A, the self-cleavage is 0.776.

For the variant U32G G35A, the self-cleavage came out at 0.473.

On to U32G G35C, for which the self-cleavage amounted to 0.626.

As for U32G G35U, the self-cleavage is 0.603.

Regarding G31U A44U, the self-cleavage amounted to 0.94.

Consider G31U A44G, for which the self-cleavage stood at 1.64.

G31U A44C: the self-cleavage turned out to be 0.564.

For U32G G45C, the self-cleavage is 0.712.

U32G G45A: the self-cleavage stood at 0.56.

For U32G G45U, the self-cleavage was 0.587.

In the case of G33A A44U, the self-cleavage is 0.98.

For the variant G33A A44G, the self-cleavage turned out to be 1.59.

Regarding G33A A44C, the self-cleavage came to 0.673.

For G31A C43U, the self-cleavage turned out to be 0.499.

Turning to G31A C43A, the self-cleavage came to 0.329.

For G31A C43G, the self-cleavage turned out to be 0.345.

In the case of G31A A44U, the self-cleavage was 0.861.

Take G31A A44C: the self-cleavage is 0.685.

Regarding G31A A44G, the self-cleavage was 1.51.

For C30U G36A, the self-cleavage worked out at 0.547.

Turning to C30U G36C, the self-cleavage is 0.667.

Regarding C30U G36U, the self-cleavage was 0.498.

Regarding G31C G45A, the self-cleavage is 0.438.

In the case of G31C G45U, the self-cleavage was determined as 0.757.

On to G31C G45C, for which the self-cleavage amounted to 0.515.

In the case of U32G A40G, the self-cleavage is 0.342.

Take U32G A40U: the self-cleavage was determined as 0.39.

On to U32G A40C, for which the self-cleavage came out at 0.372.

With U32A A37U, the self-cleavage turned out to be 0.754.

For U32A A37G, the self-cleavage was found to be 1.16.

Take U32A A37C: the self-cleavage is 0.936.

Regarding G31A G36A, the self-cleavage worked out at 0.603.

Take G31A G36U: the self-cleavage came to 0.552.

In the case of G31A G36C, the self-cleavage came to 0.671.

For the variant C30U A34U, the self-cleavage is 0.93.

As to C30U A34C, the self-cleavage is 1.03.

The record behind these values is the RNAGym collection of RNA variant scans (doi:10.7554/elife.80360).
